Here are results for 125 sequences from the supplement of paper PMC9112550, “Optimization of the antimicrobial peptide Bac7 by deep mutational scanning” (BMC Biology, 2022).

The test system of this data set is Escherichia coli TOP10. The data set can be described thus: shrunken log2 fold change of peptide-encoding DNA abundance (4.5 h post-induction vs induction); higher = less antimicrobial activity (less host growth inhibition). The conditions noted are these: time post-induction: 4.5 h; library: site-saturation at positions 5, 18, 19, 20.
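Also: peptides expressed intracellularly from a pBAD plasmid library in pooled LB shake-flask culture, induced with 0.3% L-arabinose, DNA abundance read by NGS, three biological replicates, DESeq2 with apeglm shrinkage.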

For the sequence RRIRTRPPRLPRPRPRPSLLPRP, the “shrunken log2 fold change” value was -0.0532.
As to RRIRLRPPRLPRPRPRPYWPPRP, the “shrunken log2 fold change” value is -0.518.
Take RRIRNRPPRLPRPRPRPWINPRP: the “shrunken log2 fold change” value is -0.0185.
As to RRIRQRPPRLPRPRPRPFHDPRP, the “shrunken log2 fold change” value is -0.336.
RRIRFRPPRLPRPRPRPWWIPRP: the “shrunken log2 fold change” value was -0.681.
As for RRIRYRPPRLPRPRPRPCCVPRP, the “shrunken log2 fold change” value is -0.422.
As for RRIRYRPPRLPRPRPRPIMLPRP, the “shrunken log2 fold change” value is -3.12.
For RRIRCRPPRLPRPRPRPKWWPRP, the “shrunken log2 fold change” value was found to be 0.0539.
To RRIRHRPPRLPRPRPRPCNGPRP belongs -0.00865; to RRIRARPPRLPRPRPRPWDTPRP, 0.0787.
To RRIRVRPPRLPRPRPRPLIAPRP belongs -0.0308.
The result for RRIRGRPPRLPRPRPRPKKYPRP reads 0.119.
In the case of RRIRCRPPRLPRPRPRPAYVPRP, the “shrunken log2 fold change” value was -0.288.
To RRIRNRPPRLPRPRPRPCNHPRP belongs -0.298; to RRIRWRPPRLPRPRPRPHTHPRP, -0.268.
On to RRIRPRPPRLPRPRPRPNMEPRP, for which the “shrunken log2 fold change” value was 0.0784.
For RRIRARPPRLPRPRPRPSPVPRP, the “shrunken log2 fold change” value was 0.355.
For RRIRARPPRLPRPRPRPYTTPRP, the “shrunken log2 fold change” value is -0.168.
To RRIRIRPPRLPRPRPRPALSPRP belongs 0.114; to RRIRVRPPRLPRPRPRPFHPPRP, -0.309.
Turning to RRIRRRPPRLPRPRPRPGYDPRP, the “shrunken log2 fold change” value is 0.0506.
To RRIRYRPPRLPRPRPRPFILPRP belongs -1.19; to RRIRERPPRLPRPRPRPNPTPRP, 0.00617; to RRIRSRPPRLPRPRPRPVPEPRP, 0.563.
On to RRIRIRPPRLPRPRPRPWGQPRP, for which the “shrunken log2 fold change” value is -0.00987.
Consider RRIRTRPPRLPRPRPRPNVFPRP, for which the “shrunken log2 fold change” value was determined as 0.0305.
As to RRIRQRPPRLPRPRPRPTENPRP, the “shrunken log2 fold change” value was 0.0631.
Regarding RRIRHRPPRLPRPRPRPFLLPRP, the “shrunken log2 fold change” value was -0.502.
To RRIRQRPPRLPRPRPRPVENPRP belongs -0.0501.
Take RRIRCRPPRLPRPRPRPFEWPRP: the “shrunken log2 fold change” value is -0.0143.
RRIRIRPPRLPRPRPRPTGYPRP: the “shrunken log2 fold change” value was -0.73.
As to RRIRHRPPRLPRPRPRPQQRPRP, the “shrunken log2 fold change” value came out at 0.403.
As to RRIRFRPPRLPRPRPRPLQRPRP, the “shrunken log2 fold change” value amounted to 0.071.
For the sequence RRIRWRPPRLPRPRPRPPNWPRP, the “shrunken log2 fold change” value came to 0.603.
Consider RRIRQRPPRLPRPRPRPTVGPRP, for which the “shrunken log2 fold change” value is -0.161.
In the case of RRIRVRPPRLPRPRPRPYIEPRP, the “shrunken log2 fold change” value was -0.584.
The result for RRIRWRPPRLPRPRPRPCCSPRP reads -0.0402.
RRIRSRPPRLPRPRPRPCCHPRP: the “shrunken log2 fold change” value was -0.0953.
For the sequence RRIRIRPPRLPRPRPRPENFPRP, the “shrunken log2 fold change” value was -0.0605.
RRIRWRPPRLPRPRPRPAESPRP: the “shrunken log2 fold change” value stood at 0.0626.
As for RRIRYRPPRLPRPRPRPCARPRP, the “shrunken log2 fold change” value is -0.0708.
Take RRIRDRPPRLPRPRPRPGCCPRP: the “shrunken log2 fold change” value was determined as 0.617.
In the case of RRIRRRPPRLPRPRPRPCHNPRP, the “shrunken log2 fold change” value was -0.278.
Take RRIRQRPPRLPRPRPRPDHQPRP: the “shrunken log2 fold change” value is -0.126.
On to RRIRHRPPRLPRPRPRPMSAPRP, for which the “shrunken log2 fold change” value is -0.549.
Turning to RRIRIRPPRLPRPRPRPATNPRP, the “shrunken log2 fold change” value was -0.339.
To RRIRWRPPRLPRPRPRPCHTPRP belongs -0.53; to RRIRDRPPRLPRPRPRPTTMPRP, 0.0275; to RRIRIRPPRLPRPRPRPPFFPRP, 0.41.
Consider RRIRNRPPRLPRPRPRPTTYPRP, for which the “shrunken log2 fold change” value is -0.228.
RRIRMRPPRLPRPRPRPANEPRP: the “shrunken log2 fold change” value stood at 0.182.
As for RRIRCRPPRLPRPRPRPVKMPRP, the “shrunken log2 fold change” value was -0.248.
The result for RRIRRRPPRLPRPRPRPTGLPRP reads 0.0398; that for RRIRIRPPRLPRPRPRPESFPRP, -0.0048.
In the case of RRIRQRPPRLPRPRPRPPKRPRP, the “shrunken log2 fold change” value is 0.487.
Regarding RRIRHRPPRLPRPRPRPLDMPRP, the “shrunken log2 fold change” value is -0.0339.
As for RRIRTRPPRLPRPRPRPRIMPRP, the “shrunken log2 fold change” value was -0.254.
As for RRIRPRPPRLPRPRPRPCDLPRP, the “shrunken log2 fold change” value was -0.428.
For the sequence RRIRPRPPRLPRPRPRPAGRPRP, the “shrunken log2 fold change” value was found to be 0.395.
Turning to RRIRCRPPRLPRPRPRPATVPRP, the “shrunken log2 fold change” value was 0.141.
As to RRIRERPPRLPRPRPRPEDYPRP, the “shrunken log2 fold change” value came out at 0.00235.
Take RRIRRRPPRLPRPRPRPCQKPRP: the “shrunken log2 fold change” value is 0.0185.
Regarding RRIRTRPPRLPRPRPRPDQMPRP, the “shrunken log2 fold change” value came to 0.0643.
Turning to RRIRFRPPRLPRPRPRPNYIPRP, the “shrunken log2 fold change” value is -0.587.
For RRIRNRPPRLPRPRPRPYIAPRP, the “shrunken log2 fold change” value was -0.172.
To RRIRYRPPRLPRPRPRPGRHPRP belongs -0.203.
As for RRIRWRPPRLPRPRPRPICFPRP, the “shrunken log2 fold change” value amounted to 0.135.
As for RRIRCRPPRLPRPRPRPNRCPRP, the “shrunken log2 fold change” value came to 0.053.
Consider RRIRVRPPRLPRPRPRPPPDPRP, for which the “shrunken log2 fold change” value was 0.834.
Take RRIRLRPPRLPRPRPRPQLCPRP: the “shrunken log2 fold change” value stood at 0.118.
RRIRERPPRLPRPRPRPAHPPRP: the “shrunken log2 fold change” value was -0.0581.
The result for RRIRWRPPRLPRPRPRPEYFPRP reads -0.0445.
On to RRIRLRPPRLPRPRPRPCSLPRP, for which the “shrunken log2 fold change” value worked out at 0.00822.
The result for RRIRVRPPRLPRPRPRPWHNPRP reads -0.49; that for RRIRWRPPRLPRPRPRPRKHPRP, 0.15.
The result for RRIRFRPPRLPRPRPRPANQPRP reads -0.165; that for RRIRARPPRLPRPRPRPPALPRP, 0.415; that for RRIRGRPPRLPRPRPRPMKQPRP, 0.316.
As for RRIRVRPPRLPRPRPRPVVSPRP, the “shrunken log2 fold change” value was 0.0132.
On to RRIRNRPPRLPRPRPRPCFMPRP, for which the “shrunken log2 fold change” value was -0.742.
The result for RRIRKRPPRLPRPRPRPETFPRP reads -0.00962.
For RRIRVRPPRLPRPRPRPEHCPRP, the “shrunken log2 fold change” value was determined as 0.404.
For the sequence RRIRYRPPRLPRPRPRPAVLPRP, the “shrunken log2 fold change” value is 0.0447.
To RRIRWRPPRLPRPRPRPQTLPRP belongs 0.132.
RRIRQRPPRLPRPRPRPRKPPRP: the “shrunken log2 fold change” value is 0.0318.
RRIRERPPRLPRPRPRPKLIPRP: the “shrunken log2 fold change” value is -0.0786.
Consider RRIRIRPPRLPRPRPRPKGKPRP, for which the “shrunken log2 fold change” value was -0.162.
With RRIRIRPPRLPRPRPRPWINPRP, the “shrunken log2 fold change” value is -0.379.
As to RRIRARPPRLPRPRPRPFKTPRP, the “shrunken log2 fold change” value was 0.0511.
Regarding RRIRWRPPRLPRPRPRPEYDPRP, the “shrunken log2 fold change” value is 0.695.
The result for RRIRMRPPRLPRPRPRPYVEPRP reads -0.133; that for RRIRHRPPRLPRPRPRPVTHPRP, -0.12; that for RRIRMRPPRLPRPRPRPETRPRP, 0.925.
As to RRIRQRPPRLPRPRPRPLGPPRP, the “shrunken log2 fold change” value is 0.23.
Turning to RRIRSRPPRLPRPRPRPVLYPRP, the “shrunken log2 fold change” value worked out at 1.03.
With RRIRFRPPRLPRPRPRPNVGPRP, the “shrunken log2 fold change” value is -0.0278.
Take RRIRWRPPRLPRPRPRPFPDPRP: the “shrunken log2 fold change” value stood at 0.116.
In the case of RRIRERPPRLPRPRPRPFTMPRP, the “shrunken log2 fold change” value is -0.585.
The result for RRIRERPPRLPRPRPRPAMNPRP reads -0.28; that for RRIRPRPPRLPRPRPRPKNPPRP, 0.0941.
For RRIRCRPPRLPRPRPRPVFMPRP, the “shrunken log2 fold change” value was -0.359.
Regarding RRIRLRPPRLPRPRPRPWTAPRP, the “shrunken log2 fold change” value is 0.0908.
As for RRIRERPPRLPRPRPRPGEYPRP, the “shrunken log2 fold change” value is -0.267.
Regarding RRIRQRPPRLPRPRPRPQLEPRP, the “shrunken log2 fold change” value was 0.307.
Regarding RRIRYRPPRLPRPRPRPPKQPRP, the “shrunken log2 fold change” value is -0.0678.
On to RRIRRRPPRLPRPRPRPDQQPRP, for which the “shrunken log2 fold change” value came to 0.0145.
In the case of RRIRKRPPRLPRPRPRPRSDPRP, the “shrunken log2 fold change” value is 0.197.
To RRIRFRPPRLPRPRPRPNPRPRP belongs 0.427.
Turning to RRIRGRPPRLPRPRPRPIFKPRP, the “shrunken log2 fold change” value came out at 0.359.
The result for RRIRVRPPRLPRPRPRPNVEPRP reads -0.0461; that for RRIRARPPRLPRPRPRPDPRPRP, 0.254.
With RRIRPRPPRLPRPRPRPALSPRP, the “shrunken log2 fold change” value was found to be 0.139.
RRIRPRPPRLPRPRPRPQGFPRP: the “shrunken log2 fold change” value is -0.0446.
To RRIRDRPPRLPRPRPRPSWKPRP belongs -0.015; to RRIRHRPPRLPRPRPRPEREPRP, 0.0173; to RRIRNRPPRLPRPRPRPLSYPRP, -0.319.
Consider RRIRMRPPRLPRPRPRPGLGPRP, for which the “shrunken log2 fold change” value amounted to 0.914.
RRIRCRPPRLPRPRPRPLGLPRP: the “shrunken log2 fold change” value was -0.0163.
RRIRRRPPRLPRPRPRPKNAPRP: the “shrunken log2 fold change” value came out at 0.0423.
The result for RRIRMRPPRLPRPRPRPHIEPRP reads -0.0375; that for RRIRNRPPRLPRPRPRPHQWPRP, -0.0998; that for RRIRRRPPRLPRPRPRPSQNPRP, 0.0754.
With RRIRPRPPRLPRPRPRPSWEPRP, the “shrunken log2 fold change” value was found to be 0.245.
Regarding RRIRCRPPRLPRPRPRPDRIPRP, the “shrunken log2 fold change” value is -0.0911.
As to RRIRLRPPRLPRPRPRPTRKPRP, the “shrunken log2 fold change” value was 0.374.
